Literature values as cited in article PMC8217106.

Target: BCL9 (Homo sapiens) (UniProt O00512)
Chain of UniProt O00512 (O00512 whole entry): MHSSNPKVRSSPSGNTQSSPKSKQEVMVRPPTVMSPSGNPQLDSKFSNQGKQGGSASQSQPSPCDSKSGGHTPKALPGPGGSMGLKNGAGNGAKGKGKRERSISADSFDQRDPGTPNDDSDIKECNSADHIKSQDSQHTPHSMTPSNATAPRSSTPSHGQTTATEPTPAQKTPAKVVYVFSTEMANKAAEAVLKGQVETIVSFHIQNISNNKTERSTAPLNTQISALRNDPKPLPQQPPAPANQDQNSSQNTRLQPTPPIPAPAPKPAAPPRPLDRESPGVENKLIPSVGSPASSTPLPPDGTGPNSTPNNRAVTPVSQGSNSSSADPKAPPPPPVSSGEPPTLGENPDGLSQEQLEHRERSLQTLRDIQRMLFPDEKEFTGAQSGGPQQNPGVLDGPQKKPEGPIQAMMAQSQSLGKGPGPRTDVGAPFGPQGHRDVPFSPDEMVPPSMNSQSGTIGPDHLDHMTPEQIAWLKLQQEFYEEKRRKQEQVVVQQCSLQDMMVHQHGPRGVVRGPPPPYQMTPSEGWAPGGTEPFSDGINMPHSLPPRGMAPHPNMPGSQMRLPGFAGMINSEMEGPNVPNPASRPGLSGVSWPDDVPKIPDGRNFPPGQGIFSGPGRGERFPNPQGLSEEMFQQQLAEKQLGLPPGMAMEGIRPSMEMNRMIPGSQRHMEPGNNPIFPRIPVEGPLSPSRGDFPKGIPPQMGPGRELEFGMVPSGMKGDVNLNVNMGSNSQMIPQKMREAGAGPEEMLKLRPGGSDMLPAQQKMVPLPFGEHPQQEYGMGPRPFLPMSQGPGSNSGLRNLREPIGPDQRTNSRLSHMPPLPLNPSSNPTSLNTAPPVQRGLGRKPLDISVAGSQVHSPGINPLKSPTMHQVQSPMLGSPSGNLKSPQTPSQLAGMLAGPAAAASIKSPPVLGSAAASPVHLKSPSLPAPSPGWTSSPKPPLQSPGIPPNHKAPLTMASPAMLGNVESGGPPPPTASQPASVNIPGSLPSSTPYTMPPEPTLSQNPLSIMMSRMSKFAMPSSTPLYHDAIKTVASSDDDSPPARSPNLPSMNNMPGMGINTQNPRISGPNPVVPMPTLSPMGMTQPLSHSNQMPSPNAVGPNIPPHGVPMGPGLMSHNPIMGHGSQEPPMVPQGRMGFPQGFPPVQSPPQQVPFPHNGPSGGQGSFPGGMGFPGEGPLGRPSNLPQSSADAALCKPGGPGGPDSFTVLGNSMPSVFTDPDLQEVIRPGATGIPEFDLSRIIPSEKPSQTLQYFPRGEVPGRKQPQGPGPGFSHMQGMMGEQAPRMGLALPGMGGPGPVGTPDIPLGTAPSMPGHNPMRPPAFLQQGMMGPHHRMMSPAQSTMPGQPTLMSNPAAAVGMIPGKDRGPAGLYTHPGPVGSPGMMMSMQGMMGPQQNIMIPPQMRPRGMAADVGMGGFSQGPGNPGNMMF

β-catenin (from UniProt P35222)
Kd: 470 nM
